Test results taken from article doi:10.1101/2022.02.11.480038, “Phosphorylation by casein kinase 2 ensures ER-phagy receptor TEX264 binding to ATG8 proteins” (bioRxiv, 2022).
Where no end group is shown, it is not given here. [ ]: non-standard residue; d: D form. pS = N[C@@H](COP(=O)(O)O)C(=O)O

B1: TEX264 peptide (residues 269-278) with S272 phosphorylation (p-S272) (peptide)
peptide: SGS[pS]FEELDL
notes: also called p-Ser272; source: synthetic peptide, bought: GenScript; passed over Superdex peptide
B2: TEX264 LIR peptide (residues 266-278) with S266 phosphorylation (p-S266) (peptide)
peptide: [pS]GASGSSFEELDL
notes: source: synthetic peptide, bought: GenScript; passed over Superdex peptide
B3: phosphomimetic TEX264^(S271D, S272D) peptide (2SD-LIR) (peptide, UniProt Q9Y6I9 269-278, looked up)
peptide: SGDDFEELDL
notes: also called 2D-LIR; source: synthetic peptide, bought: GenScript; passed over Superdex peptide
B4: phosphomimetic TEX264^(S269D, S271D, S272D) peptide (3SD-LIR) (peptide, UniProt Q9Y6I9 269-278, looked up)
peptide: DGDDFEELDL
notes: also called 3D-LIR; source: synthetic peptide, bought: GenScript; passed over Superdex peptide
B5: phosphomimetic TEX264^(S271, 272E) peptide (2SE-LIR) (peptide, UniProt Q9Y6I9 269-278, looked up)
peptide: SGEEFEELDL
notes: also called 2E-LIR; source: synthetic peptide, bought: GenScript; passed over Superdex peptide
B6: phosphomimetic TEX264^(S269E, S271E, S272E) peptide (3SE-LIR) (peptide, UniProt Q9Y6I9 269-278, looked up)
peptide: EGEEFEELDL
notes: also called 3E-LIR; source: synthetic peptide, bought: GenScript; passed over Superdex peptide

Biological target: Human LC3B (residues 1-120) (human, UniProt Q9GZQ8 1-120)
Test: ITC; Microcal iTC200, 25°C; TEX264 peptides 0.5 mM in the syringe, LC3B or GABARAP in the cell at 10-times lower concentration; single-site binding model
Conditions: both partners purified

| Binder | fold enhancement of affinity over the unphosphorylated peptide | binding result |
| --- | --- | --- |
| B1 | 37 fold | – |
| B2 | 1.8 fold | – |
| B3 | – | binds |
| B4 | – | binds |
| B5 | – | binds |
| B6 | – | binds |

Biological target: T1, Human GABARAP (residues 1-116) (human, UniProt O95166 1-116)
T1 construct: GABARAP, human, residues 1-116; source: prepared as described previously (Mochida et al., 2020), purified
Test: as above
Conditions: both partners purified

T1 sequence (O95166 1-116): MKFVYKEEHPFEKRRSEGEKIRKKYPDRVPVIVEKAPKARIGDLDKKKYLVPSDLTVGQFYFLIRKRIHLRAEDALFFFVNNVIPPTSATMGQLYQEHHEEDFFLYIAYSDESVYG

| Binder | fold enhancement of affinity over the unphosphorylated peptide | fold enhancement of affinity over the unmodified peptide |
| --- | --- | --- |
| B1 | 23 fold | – |
| B2 | 6.5 fold | – |
| B3 | – | ~20 fold |
| B4 | – | ~20 fold |
| B5 | – | ~20 fold |
| B6 | – | ~20 fold |
